Read-outs that look alike come from different tables or passages of the source.
How the values were obtained:
[1] = target: SARS-CoV-2 Spike protein (SARS-CoV-2) (UniProt P0DTC2); assay: fluorescence dequenching (Cy5/BHQ2)
[2] = target: SARS-CoV-2 Spike protein (SARS-CoV-2) (UniProt P0DTC2); assay: fluorescence dequenching (Cy5/BHQ2); remark: listed apart in the source
[3] = target: SARS-CoV-2 Spike protein (SARS-CoV-2) (UniProt P0DTC2); assay: ligand-responsive LAMP, colorimetric (indirect); conditions: 5'-phosphate

Q: With “CAGCACCGACCTTGTGCTTTGGGAGTGCTGGTCCAAGGGCGTTAATGGAC [EY615QF]” as the sequence, how does the binding (% fluorescence increase) [1] read?
A: 46

Q: What about the binding (% fluorescence increase) [2] of the same sequence?
A: 31

Q: “CAGCACCGACCTTGTGCTTTGGGAGTGCTGGTCCAAGGGCGTTAATGGAC [EY615]” was tested. Which binding (% increase of Abs430/Abs560) [3] did it give?
A: 81

— publication PMC11548252
